# Test results: paper PMC10953581, “SHMT2 Mediates Small‐Molecule‐Induced Alleviation of Alzheimer Pathology Via the 5′UTR‐dependent ADAM10 Translation Initiation”
# T1: human SUMO-SHMT2 (Homo sapiens, UniProt P34897 1-504)
# T1 sequence: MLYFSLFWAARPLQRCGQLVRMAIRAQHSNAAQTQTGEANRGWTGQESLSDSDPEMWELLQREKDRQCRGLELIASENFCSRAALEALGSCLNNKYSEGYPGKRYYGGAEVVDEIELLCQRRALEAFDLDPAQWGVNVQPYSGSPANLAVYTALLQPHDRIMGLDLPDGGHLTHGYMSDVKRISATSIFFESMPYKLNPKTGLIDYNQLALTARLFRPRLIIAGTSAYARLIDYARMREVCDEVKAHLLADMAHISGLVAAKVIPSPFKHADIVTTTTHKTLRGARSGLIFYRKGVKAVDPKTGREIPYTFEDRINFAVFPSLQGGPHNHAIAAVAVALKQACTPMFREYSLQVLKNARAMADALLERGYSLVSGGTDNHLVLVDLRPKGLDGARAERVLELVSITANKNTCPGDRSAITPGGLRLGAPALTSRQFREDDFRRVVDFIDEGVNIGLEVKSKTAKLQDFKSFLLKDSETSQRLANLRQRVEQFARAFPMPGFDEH
# T2: murine SUMO-SHMT2 (Mus musculus, UniProt Q9CZN7 1-504)
# T2 sequence: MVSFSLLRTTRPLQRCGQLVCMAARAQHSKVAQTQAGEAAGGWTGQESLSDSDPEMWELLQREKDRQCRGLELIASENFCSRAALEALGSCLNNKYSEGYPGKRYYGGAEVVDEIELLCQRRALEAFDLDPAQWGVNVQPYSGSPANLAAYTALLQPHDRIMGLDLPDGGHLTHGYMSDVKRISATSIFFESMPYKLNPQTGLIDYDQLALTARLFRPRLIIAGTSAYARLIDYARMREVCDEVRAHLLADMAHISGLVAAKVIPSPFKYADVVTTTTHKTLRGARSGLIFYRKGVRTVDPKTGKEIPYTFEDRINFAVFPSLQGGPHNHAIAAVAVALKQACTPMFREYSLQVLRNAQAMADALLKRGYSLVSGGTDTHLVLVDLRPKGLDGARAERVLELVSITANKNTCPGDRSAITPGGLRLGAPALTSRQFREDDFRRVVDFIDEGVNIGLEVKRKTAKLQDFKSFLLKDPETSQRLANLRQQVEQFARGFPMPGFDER
# Assays:
# human SUMO-SHMT2 = biological target: T1, human SUMO-SHMT2; experiment: EMSA; RNA EMSA (LightShift kit): 10 pmol biotin-RNA, 6 ug protein, 1X EMSA binding buffer, 5% glycerol, 0.1 mg/mL tRNA, 20 uL, 30 min, room temperature; salt and pH not stated; settings: protein: recombinant; tags: SUMO; chain copies: 4; label: 5' biotin
# murine SUMO-SHMT2 = biological target: T2, murine SUMO-SHMT2; experiment: as above; settings: protein: recombinant; tags: SUMO; label: 5' biotin
binder,measurement,setting,value
UGAGUUUCGAAGGAGGGGGG (ssRNA) [156-175],binding result,human SUMO-SHMT2,binds
GUUUUGGCGGAGCAGGGCGCGCGGCUGGG (ssRNA) [mouse 58-86],binding result,murine SUMO-SHMT2,no binding
GAAGAGGCCGAGGGGGAGGGAGGGCCCU (ssRNA) [mouse 30-57],binding result,murine SUMO-SHMT2,binds
AGGAAAGCGGGGAAAGGAGGAA (ssRNA) [201-222],binding result,human SUMO-SHMT2,binds
GGACGGGUAGGGGCGGGAGGUA (ssRNA) [69-90],binding result,human SUMO-SHMT2,binds
GGAAACGAACUAUUUGUAUUUA (ssRNA) [MUT223-244],binding result,human SUMO-SHMT2,no binding
AGUAAAUCGGGUAAAUGAGGAA (ssRNA) [MUT201-222],binding result,human SUMO-SHMT2,no binding
UGAGUUUCGAAGUAUUUGGG (ssRNA) [MUT156-175],binding result,human SUMO-SHMT2,no binding
GAGAGAAGAGGGAACGAGCAAGGGA (ssRNA) [176-200],binding result,human SUMO-SHMT2,binds
GGACGGGUAGGGGCUUUAUGUA (ssRNA) [MUT69-90],binding result,human SUMO-SHMT2,no binding
GGAAACGAACGAGGGGGAGGGA (ssRNA) [223-244],binding result,human SUMO-SHMT2,binds
GAGGGCAGGGAAGCGGGGAAGGGAGGAAG (ssRNA) [mouse 1-29],binding result,murine SUMO-SHMT2,binds
GAGAGAAUAUUUAACGAGCAAGGGA (ssRNA) [MUT176-200],binding result,human SUMO-SHMT2,no binding
